From publication PMC11997057, “PIN1-SUMO2/3 motif suppresses excessive RNF168 chromatin accumulation and ubiquitin signaling to promote IR resistance” (Nature Communications, 2025)
Non-standard residues stand in square brackets, D forms with d. No end group written: not given here. pT = C[C@@H](OP(=O)(O)O)[C@H](N)C(=O)O

Columns and labels:
[1] = target: PIN1 WW domain (UniProt Q13526); experiment: GST pull-down from cell lysate; conditions: reference: myc-RNF168 wild type; sites T208
[2] = target: PIN1 (UniProt Q13526); experiment: native mass spectrometry, 1:5 protein:peptide; conditions: reference: unphosphorylated peptide; sites T208
[3] = target: T1, full-length PIN1 (recombinant, tag cleaved) (UniProt Q13526 1-163); experiment: native MS; PIN1 2.5 uM and peptide 12.5 uM (1:5 molar ratio) incubated on ice in 100 mM ammonium acetate pH 6.8; nanoelectrospray, positive mode; conditions: both partners purified
T1 construct: peptidyl-prolyl isomerase PIN1, full length; also called recombinant PIN1; tag-cleaved PIN1; source: E. coli Rosetta 2(DE3) pLysS, auto-induction, purified (IMAC), tag cleaved with TEV protease; not shown: His6, N-terminal, cleaved

For RNF168 (from UniProt Q8IYW5) T208A, which “binding against the reference” value [1] is on record?
The value was “weaker”.

With “RNF168 204-210 (from UniProt Q8IYW5) pT208 peptide” as the molecule, how does the “binding against the reference” value [2] read?
The value was “stronger”.

B1: unphosphorylated RNF168 peptide S204-K210 (peptide)
peptide: SDPVTPK
notes: end groups not known; also called non-phosphorylated peptide of the T208 motif; source: synthetic peptide, bought: GenScript Biotech
Does B1 bind [3]?
Result: binds

B2: phosphorylated RNF168 peptide S204-K210, SDPV(pT)PK (peptide)
peptide: SDPV[pT]PK
notes: end groups not known; also called phospho-RNF168 peptide; pT208-RNF168 peptide; source: synthetic peptide, bought: GenScript Biotech
Does B2 bind [3]?
Result: binds
